Measurements as given in publication PMC6689074, “In vivo Hox binding specificity revealed by systematic changes to a single cis regulatory module”.
Positions count from the first letter of the chain named.

B1: main class 1 + overlapping high-affinity class 3 oligo (dsDNA)
DNA 1: ACGGGATTTGATTGATTTATTAGAATTCGGCGACGAACGAAAGC
DNA 2: GCTTTCGTTCGTCGCCGAATTCTAATAAATCAATCAAATCCCGT
B2: mutant main + high-affinity overlapping class 3 oligo (dsDNA)
DNA 1: B1 DNA 1 with T8A, T9C
DNA 2: B1 DNA 2 with A36G, A37T

What was measured:
[1] = biological target: T1, Ultrabithorax isoform IVa (UbxIVa);Extradenticle (Exd);Homothorax HM domain (HthHM) (Drosophila melanogaster?;Drosophila …, UniProt P83949-5;P40427;O46339 1-346;1-376;1-211, ||); test: EMSA; increased with high-affinity overlapping site; EMSA: 6 nM 32P dsDNA probe, 200 nM Exd-HM, 30-180 nM Hox; 4% polyacrylamide gel, 120 V, 2.5 h, 4 C; buffer, salt and pH not given in material; settings: protein: recombinant;recombinant;recombinant; tags: His (pET21b);none (pET9a);His (pET21b); copies: 1;1;1; label: 32P
T1 sequence (P83949 other isoform, or with tags, fused parts or gaps ||, chain 1 of 3): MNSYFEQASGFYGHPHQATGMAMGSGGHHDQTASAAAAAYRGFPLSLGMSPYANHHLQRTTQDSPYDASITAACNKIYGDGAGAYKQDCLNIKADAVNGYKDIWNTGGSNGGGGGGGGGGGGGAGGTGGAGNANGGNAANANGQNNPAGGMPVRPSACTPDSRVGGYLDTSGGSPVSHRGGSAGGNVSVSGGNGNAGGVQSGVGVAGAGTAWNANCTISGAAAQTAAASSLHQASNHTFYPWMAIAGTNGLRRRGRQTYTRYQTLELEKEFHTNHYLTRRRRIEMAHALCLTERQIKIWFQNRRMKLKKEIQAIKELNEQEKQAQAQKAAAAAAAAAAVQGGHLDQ
T1 sequence (P40427 whole entry, chain 2 of 3, the tested form may be a part, canonical isoform): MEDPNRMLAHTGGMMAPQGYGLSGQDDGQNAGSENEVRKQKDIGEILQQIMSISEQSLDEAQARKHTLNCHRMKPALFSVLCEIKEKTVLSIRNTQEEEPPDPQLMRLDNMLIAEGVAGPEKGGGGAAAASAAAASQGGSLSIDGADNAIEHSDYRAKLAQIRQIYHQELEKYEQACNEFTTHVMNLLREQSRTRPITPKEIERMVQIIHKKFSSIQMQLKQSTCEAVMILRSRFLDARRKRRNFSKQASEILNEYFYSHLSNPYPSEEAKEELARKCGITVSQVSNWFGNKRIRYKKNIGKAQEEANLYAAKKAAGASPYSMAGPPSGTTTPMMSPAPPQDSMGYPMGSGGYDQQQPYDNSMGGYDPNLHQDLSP
T1 sequence (O46339 1-211, chain 3 of 3): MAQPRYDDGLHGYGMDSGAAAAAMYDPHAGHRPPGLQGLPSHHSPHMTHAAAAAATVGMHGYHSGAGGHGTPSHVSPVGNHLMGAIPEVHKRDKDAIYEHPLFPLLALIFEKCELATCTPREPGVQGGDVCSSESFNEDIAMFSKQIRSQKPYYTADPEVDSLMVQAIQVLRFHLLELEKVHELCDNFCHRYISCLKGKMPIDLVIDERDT

[2] = biological target: T1, Ultrabithorax isoform IVa …; test: EMSA; strong binding; EMSA: 6 nM 32P dsDNA probe, 200 nM Exd-HM, 30-180 nM Hox; 4% polyacrylamide gel, 120 V, 2.5 h, 4 C; buffer, salt and pH not given in material; settings: protein: recombinant;recombinant;recombinant; tags: His (pET21b);none (pET9a);His (pET21b); copies: 1;1;1; label: 32P

Binder | binding result [1] | binding result [2]
B1 | binds | –
B2 | – | binds
